From patent US12723078
pKd: −log10 of the molar value.

Columns and labels:
[1] = molecular target: recombinant LILRB1 (human) (UniProt Q8NHL6); test: Octet RED96, LILRB1 at 100, 33.3, 11.1 and 3.7 nM
[2] = molecular target: LILRB1 expressed on cell surface (human) (UniProt Q8NHL6); test: flow cytometry on 2B4 cells expressing the LILR, PE
LILRA4 on reporter cells = LILRA4 on reporter cells (UniProt P59901); test: as above
LILRA1 on reporter cells = LILRA1 on reporter cells (UniProt O75019); test: as above
LILRA2 on reporter cells = LILRA2 on reporter cells (UniProt Q8N149); test: as above
LILRB4 on reporter cells = LILRB4 on reporter cells (UniProt Q8NHJ6); test: as above
LILRB5 on reporter cells = LILRB5 on reporter cells (UniProt O75023); test: as above
LILRB3 on reporter cells = LILRB3 on reporter cells (UniProt O75022); test: as above
LILRB2 on reporter cells = LILRB2 on reporter cells (UniProt Q8N423); test: as above
LILRA5 on reporter cells = LILRA5 on reporter cells (UniProt A6NI73); test: as above
LILRA6 on reporter cells = LILRA6 on reporter cells (UniProt Q6PI73); test: as above
[3] = molecular target: recombinant LILRB1 (human) (UniProt Q8NHL6); test: ELISA, control

Sequence of LILRA2 on reporter cells (Q8N149 24-483): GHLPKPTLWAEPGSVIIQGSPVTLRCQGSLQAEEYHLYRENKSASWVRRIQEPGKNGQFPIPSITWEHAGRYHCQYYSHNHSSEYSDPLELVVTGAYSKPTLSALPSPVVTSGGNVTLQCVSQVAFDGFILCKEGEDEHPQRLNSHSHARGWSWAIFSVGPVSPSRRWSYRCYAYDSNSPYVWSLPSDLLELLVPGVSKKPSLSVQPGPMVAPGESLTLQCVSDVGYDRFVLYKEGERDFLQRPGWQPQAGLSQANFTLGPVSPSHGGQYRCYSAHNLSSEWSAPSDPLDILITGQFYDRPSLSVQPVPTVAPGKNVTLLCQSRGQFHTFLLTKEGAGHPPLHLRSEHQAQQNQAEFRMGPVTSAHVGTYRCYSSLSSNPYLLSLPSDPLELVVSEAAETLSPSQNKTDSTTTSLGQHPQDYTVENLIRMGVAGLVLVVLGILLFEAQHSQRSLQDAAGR
Sequence of LILRA5 on reporter cells (A6NI73 42-299): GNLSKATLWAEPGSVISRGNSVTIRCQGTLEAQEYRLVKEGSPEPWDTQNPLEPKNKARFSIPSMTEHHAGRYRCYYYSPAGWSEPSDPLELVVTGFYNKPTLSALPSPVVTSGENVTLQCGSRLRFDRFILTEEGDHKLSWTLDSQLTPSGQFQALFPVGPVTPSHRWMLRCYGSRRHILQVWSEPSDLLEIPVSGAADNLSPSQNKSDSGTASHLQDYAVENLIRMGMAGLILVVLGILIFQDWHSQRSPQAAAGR
Sequence of LILRA4 on reporter cells (P59901 24-499): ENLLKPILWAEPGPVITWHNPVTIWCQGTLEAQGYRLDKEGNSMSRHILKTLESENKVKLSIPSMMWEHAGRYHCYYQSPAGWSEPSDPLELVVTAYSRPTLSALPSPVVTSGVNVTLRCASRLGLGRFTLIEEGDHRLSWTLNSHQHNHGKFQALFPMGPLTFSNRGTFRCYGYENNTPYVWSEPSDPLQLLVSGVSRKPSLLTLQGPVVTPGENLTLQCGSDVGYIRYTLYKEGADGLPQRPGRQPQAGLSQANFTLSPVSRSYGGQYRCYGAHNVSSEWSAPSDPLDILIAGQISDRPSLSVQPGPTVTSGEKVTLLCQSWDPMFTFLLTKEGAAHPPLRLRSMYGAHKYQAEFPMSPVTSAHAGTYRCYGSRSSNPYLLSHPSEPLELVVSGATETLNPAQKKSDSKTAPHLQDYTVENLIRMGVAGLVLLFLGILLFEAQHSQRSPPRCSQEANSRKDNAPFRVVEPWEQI
Sequence of LILRB5 on reporter cells (O75023 24-590 limits assumed): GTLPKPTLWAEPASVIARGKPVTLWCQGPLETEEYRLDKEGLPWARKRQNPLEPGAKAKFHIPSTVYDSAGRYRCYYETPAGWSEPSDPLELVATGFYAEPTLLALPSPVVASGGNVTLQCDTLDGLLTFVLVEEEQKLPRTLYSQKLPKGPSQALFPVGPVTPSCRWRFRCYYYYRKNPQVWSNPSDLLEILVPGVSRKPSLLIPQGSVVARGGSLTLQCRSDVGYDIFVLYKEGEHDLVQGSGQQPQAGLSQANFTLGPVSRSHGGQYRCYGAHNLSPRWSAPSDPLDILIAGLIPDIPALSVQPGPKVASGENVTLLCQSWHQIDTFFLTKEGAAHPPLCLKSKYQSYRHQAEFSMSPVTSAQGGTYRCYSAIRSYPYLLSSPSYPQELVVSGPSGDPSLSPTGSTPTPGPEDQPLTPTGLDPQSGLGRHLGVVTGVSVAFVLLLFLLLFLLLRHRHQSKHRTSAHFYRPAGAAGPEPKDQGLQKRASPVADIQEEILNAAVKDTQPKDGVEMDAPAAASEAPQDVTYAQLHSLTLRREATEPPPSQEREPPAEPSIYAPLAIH
Sequence of LILRB1 expressed on cell surface (human) (Q8NHL6 24-650 limits assumed): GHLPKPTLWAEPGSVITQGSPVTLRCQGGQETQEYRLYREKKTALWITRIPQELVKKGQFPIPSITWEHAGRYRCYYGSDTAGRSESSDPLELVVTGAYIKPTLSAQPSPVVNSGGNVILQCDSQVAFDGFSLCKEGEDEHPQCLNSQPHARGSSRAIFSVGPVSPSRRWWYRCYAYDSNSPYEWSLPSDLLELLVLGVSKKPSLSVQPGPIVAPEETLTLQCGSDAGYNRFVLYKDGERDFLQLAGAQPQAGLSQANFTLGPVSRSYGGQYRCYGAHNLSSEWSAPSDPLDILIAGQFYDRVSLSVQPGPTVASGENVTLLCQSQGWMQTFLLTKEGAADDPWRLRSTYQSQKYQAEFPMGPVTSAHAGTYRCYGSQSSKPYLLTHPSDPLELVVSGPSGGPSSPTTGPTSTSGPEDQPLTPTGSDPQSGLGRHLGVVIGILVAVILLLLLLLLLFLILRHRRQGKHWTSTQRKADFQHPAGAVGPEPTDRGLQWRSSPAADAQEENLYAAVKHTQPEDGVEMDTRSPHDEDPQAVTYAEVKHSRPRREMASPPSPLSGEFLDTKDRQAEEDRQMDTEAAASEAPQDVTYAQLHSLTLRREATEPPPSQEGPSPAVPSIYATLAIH
Sequence of recombinant LILRB1 (human) (Q8NHL6 24-461 limits assumed): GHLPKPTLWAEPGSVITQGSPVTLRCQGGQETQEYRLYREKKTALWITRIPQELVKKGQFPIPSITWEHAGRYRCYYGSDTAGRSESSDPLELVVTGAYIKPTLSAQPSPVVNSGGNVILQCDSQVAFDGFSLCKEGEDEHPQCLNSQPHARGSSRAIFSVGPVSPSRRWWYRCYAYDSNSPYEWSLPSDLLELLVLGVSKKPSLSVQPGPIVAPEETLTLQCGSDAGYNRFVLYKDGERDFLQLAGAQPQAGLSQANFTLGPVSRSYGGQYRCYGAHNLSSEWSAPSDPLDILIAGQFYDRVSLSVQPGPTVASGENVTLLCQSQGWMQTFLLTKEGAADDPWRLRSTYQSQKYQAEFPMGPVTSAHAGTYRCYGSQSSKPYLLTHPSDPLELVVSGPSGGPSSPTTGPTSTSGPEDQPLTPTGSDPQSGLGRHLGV
Sequence of LILRB2 on reporter cells (Q8N423 22-597): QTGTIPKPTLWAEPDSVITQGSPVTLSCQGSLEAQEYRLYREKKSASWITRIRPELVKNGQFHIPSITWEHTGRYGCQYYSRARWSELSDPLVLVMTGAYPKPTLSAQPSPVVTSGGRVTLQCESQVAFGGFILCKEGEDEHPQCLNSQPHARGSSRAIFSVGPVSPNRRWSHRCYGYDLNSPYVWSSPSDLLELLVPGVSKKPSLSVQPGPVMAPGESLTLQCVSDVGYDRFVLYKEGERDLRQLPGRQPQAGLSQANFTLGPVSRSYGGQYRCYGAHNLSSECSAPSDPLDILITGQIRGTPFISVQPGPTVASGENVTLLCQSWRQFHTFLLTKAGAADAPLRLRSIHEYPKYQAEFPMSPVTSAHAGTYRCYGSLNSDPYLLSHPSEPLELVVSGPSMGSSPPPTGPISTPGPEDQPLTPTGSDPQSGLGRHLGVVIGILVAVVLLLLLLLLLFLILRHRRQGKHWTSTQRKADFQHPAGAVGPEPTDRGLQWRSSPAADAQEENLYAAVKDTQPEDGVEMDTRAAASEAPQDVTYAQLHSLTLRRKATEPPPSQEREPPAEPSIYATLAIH
Sequence of LILRA6 on reporter cells (Q6PI73 24-481): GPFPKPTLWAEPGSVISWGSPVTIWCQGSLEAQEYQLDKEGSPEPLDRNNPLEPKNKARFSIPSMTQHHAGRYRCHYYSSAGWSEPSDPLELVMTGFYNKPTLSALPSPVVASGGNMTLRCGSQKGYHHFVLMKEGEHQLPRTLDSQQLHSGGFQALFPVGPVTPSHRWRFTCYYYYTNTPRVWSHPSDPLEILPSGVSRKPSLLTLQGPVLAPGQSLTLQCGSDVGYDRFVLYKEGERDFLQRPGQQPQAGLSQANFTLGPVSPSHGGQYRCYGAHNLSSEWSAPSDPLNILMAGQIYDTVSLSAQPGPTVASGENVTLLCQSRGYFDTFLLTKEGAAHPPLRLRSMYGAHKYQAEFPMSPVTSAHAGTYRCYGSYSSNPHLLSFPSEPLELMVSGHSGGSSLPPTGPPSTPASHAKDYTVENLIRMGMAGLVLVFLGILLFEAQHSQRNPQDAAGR
Sequence of LILRA1 on reporter cells (O75019 17-489 limits assumed): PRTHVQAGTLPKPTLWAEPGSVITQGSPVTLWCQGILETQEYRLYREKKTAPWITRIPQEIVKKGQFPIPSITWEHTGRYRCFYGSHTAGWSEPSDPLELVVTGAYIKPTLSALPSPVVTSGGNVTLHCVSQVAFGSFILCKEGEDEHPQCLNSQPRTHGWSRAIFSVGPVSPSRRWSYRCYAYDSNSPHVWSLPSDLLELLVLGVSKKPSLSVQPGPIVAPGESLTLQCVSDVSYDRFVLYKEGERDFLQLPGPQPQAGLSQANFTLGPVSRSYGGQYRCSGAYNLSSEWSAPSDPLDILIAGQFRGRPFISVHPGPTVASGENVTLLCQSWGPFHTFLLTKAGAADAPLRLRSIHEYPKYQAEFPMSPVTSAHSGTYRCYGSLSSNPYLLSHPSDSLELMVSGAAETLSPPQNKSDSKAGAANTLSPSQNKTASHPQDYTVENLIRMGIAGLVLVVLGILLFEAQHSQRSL

| Substance | pKd [1] | percent of cells in the gate [2] [%] | percent of cells in the gate (LILRA4 on reporter cells) [%] | percent of cells in the gate (LILRA1 on reporter cells) [%] | percent of cells in the gate (LILRA2 on reporter cells) [%] | percent of cells in the gate (LILRB4 on reporter cells) [%] | percent of cells in the gate (LILRB5 on reporter cells) [%] | percent of cells in the gate (LILRB3 on reporter cells) [%] | percent of cells in the gate (LILRB2 on reporter cells) [%] | percent of cells in the gate (LILRA5 on reporter cells) [%] | percent of cells in the gate (LILRA6 on reporter cells) [%] | OD450 [3] [OD450] |
| --- | --- | --- | --- | --- | --- | --- | --- | --- | --- | --- | --- | --- |
| GHI/75 (commercial anti-LILRB1 monoclonal antibody) | 8.29 | 98.8 | 0.16 | 1.22 | 1.25 | 0.524 | 0.558 | 0.867 | 1.58 | 0.219 | 0.273 | – |
| R&D 292319 (antibody) | – | 96.3 | 0.27 | 0.249 | 0.334 | 0.466 | 0.359 | 0.239 | 0.65 | 0.282 | 0.199 | – |
| HP-F1 (commercial anti-LILRB1 monoclonal antibody) | 8.08 | 98.5 | 0.301 | 80.8 | 85.3 | 0.0568 | 0.0127 | 0.196 | 1.52 | 0.343 | 0.144 | – |
| Ctrl | – | – | – | – | – | – | – | – | – | – | – | 0.1 |
